According to the supplement of paper PMC7125110:
± gives the standard error. Variants at the floor of the assay were thinned out.

B1: glmS ribozyme (parent)
chain: AUAAAAGCGCCAGAACUACAGAAAUGUAGUUGACGAGGAGGAGGUUUAUCGAAUUUUCGGCGGAUGCCUCCAAA

How the values were obtained:
Settings in all cases: with glucosamine-6-phosphate
glucosamine-6-phosphate [1] = variants of: B1; experiment: self-cleavage kobs at 640 uM GlcN6P; higher = faster cleavage; RNA array
Procedure, shortened: (§1)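 Barcoded glmS ribozyme variants on sequenced MiSeq chips were transcribed in situ by E. coli RNA polymerase and tracked through a hybridised Cy3 probe at 37 °C. Glucosamine-6-phosphate (40 μM to 10 mM) in HEPES/KCl/Mg(OAc)2 buffer was flowed in, and tiles were imaged over ~14 h. Signals were normalised to baseline and to non-cleaving reference variants; per-tile medians were fit to one- or two-exponential decays to give kobs. kcat and KM came from weighted Michaelis–Menten fits across concentrations.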

glucosamine-6-phosphate [2] = variants of: B1; experiment: self-cleavage kobs at 2500 uM GlcN6P; higher = faster cleavage; RNA array
Procedure, shortened: as §1

glucosamine-6-phosphate [3] = variants of: B1; experiment: self-cleavage kobs at 10000 uM GlcN6P; higher = faster cleavage; RNA array
Procedure, shortened: as §1

Variant	self-cleavage kobs at 640 uM GlcN6P (glucosamine-6-phosphate [1]) [s⁻¹]	self-cleavage kobs at 2500 uM GlcN6P (glucosamine-6-phosphate [2]) [s⁻¹]	self-cleavage kobs at 10000 uM GlcN6P (glucosamine-6-phosphate [3]) [s⁻¹]
G37C G59C	< 1e-05	< 1e-05	< 1e-05
U46G C67U C71A	6.72e-05 ± 2e-05	–	–
G35A A39G C61U	< 1e-05	< 1e-05	–
G9A G63U C70U	< 1e-05	–	–
U31G G37C G38C	< 1e-05	< 1e-05	–
A6C U47C U54G	< 1e-05	–	–
A6U A15C G44U	< 1e-05	< 1e-05	–
G9A A12U U49A	< 1e-05	< 1e-05	–
C11U A15G C70U	0.000677 ± 0.00015	0.00215 ± 0.00061	–
C8U A42G A48C	< 1e-05	< 1e-05	–
A12G G38C C68G	< 1e-05	< 1e-05	–
A12C U30A G35A	< 1e-05	< 1e-05	< 1e-05
A6C A14U U55G	< 1e-05	–	–
A15C C16U U45A	0.000911 ± 0.00018	0.00147 ± 0.00058	–
C8A U55G A64U	< 1e-05	< 1e-05	–
C8U A53G U55A C68G	0.000442 ± 0.00017	–	–
A6G G7U U31C A36C	< 1e-05	< 1e-05	–
U55A C67A C68U	8.42e-05 ± 2.6e-05	0.000218 ± 4e-05	0.000108 ± 2.8e-05
A24C U47G C67A	0.000315 ± 7.3e-05	0.000647 ± 0.00024	–
U55A U65C C68U	0.000206 ± 8.7e-05	0.000114 ± 3.5e-05	–
C8G C11U A15U G29C G41U	< 1e-05	–	< 1e-05
C10U C58G C67A	0.000107 ± 3.8e-05	–	–
G9C A15C A64C C68G	< 1e-05	–	–
A12C A52U U57A	0.000131 ± 2.7e-05	0.000458 ± 5.1e-05	–
C11G U45C U46C C61U	< 1e-05	< 1e-05	–

Variant	self-cleavage kobs at 640 uM GlcN6P (glucosamine-6-phosphate [1]) [s⁻¹]	self-cleavage kobs at 2500 uM GlcN6P (glucosamine-6-phosphate [2]) [s⁻¹]	self-cleavage kobs at 10000 uM GlcN6P (glucosamine-6-phosphate [3]) [s⁻¹]
G13U U56C A64G	< 1e-05	–	–
A42G U55C G66U	0.000398 ± 7.7e-05	0.000634 ± 0.00014	0.00167 ± 0.00029
A6C A14G A36G A52C	< 1e-05	< 1e-05	–
C11U G41A G60U G63U C70U	< 1e-05	< 1e-05	–
U30A G37A U56A	5.62e-05 ± 1.7e-05	–	–
C67A U69A	0.000234 ± 4.1e-05	0.000247 ± 5.8e-05	–
A42G A64G C71G	0.000615 ± 0.00014	0.00107 ± 0.0003	0.000757 ± 0.00025
A14U G29U U56G	0.000178 ± 4.1e-05	0.000206 ± 7.4e-05	–
A12G U45G A52U C61G	< 1e-05	–	–
G7U C61G C67A	0.000105 ± 4.6e-05	0.00214 ± 0.00087	–
C8A G9C G37C	< 1e-05	–	–
C34U G44C G63U A64C	< 1e-05	–	–
G35A G40U C68U	< 1e-05	–	–
G13A G44C	< 1e-05	–	–
G13A C16G A36C G41U A52U	< 1e-05	–	–
A36G G51C C71G	< 1e-05	< 1e-05	–
A36C A42G G43A C67G	< 1e-05	–	–
G29U A36U A39G G60A	< 1e-05	–	–
C16A C70U C71A	0.00012 ± 4.3e-05	–	–
A12C A15G A39C	5.62e-05 ± 1.6e-05	0.000163 ± 4.9e-05	–
A36G A39C U47G	< 1e-05	< 1e-05	< 1e-05
C34G U45A U57C	< 1e-05	–	–
G32A U65A C71U	5.38e-05 ± 1.4e-05	9.54e-05 ± 2.4e-05	–
C50A A52C C61A C68U	0.000706 ± 0.00019	–	–
G40U C50U G63A C67A	< 1e-05	< 1e-05	–

Variant	self-cleavage kobs at 640 uM GlcN6P (glucosamine-6-phosphate [1]) [s⁻¹]	self-cleavage kobs at 2500 uM GlcN6P (glucosamine-6-phosphate [2]) [s⁻¹]	self-cleavage kobs at 10000 uM GlcN6P (glucosamine-6-phosphate [3]) [s⁻¹]
A6G G37A G41A	< 1e-05	< 1e-05	< 1e-05
A6U C16U U54A	4.1e-05 ± 1.3e-05	0.000121 ± 3e-05	–
G37C G40C U49A	< 1e-05	< 1e-05	–
C8G G41U A48U C70U	< 1e-05	–	–
A14G A36C G40C G51C	< 1e-05	–	–
G7A U31G G41U C68U	< 1e-05	–	–
G13C A14C C71U	4.16e-05 ± 1.1e-05	0.000105 ± 1.7e-05	–
G38C G43U A64C	< 1e-05	< 1e-05	–
A12U C50U G59U	< 1e-05	< 1e-05	< 1e-05
C10A A64U U69G	0.000351 ± 0.00014	–	–
U31A A39C C50G C71A	< 1e-05	< 1e-05	< 1e-05
A14C A42G G43A U69C C70U	< 1e-05	–	–
G7C A48G U54G	< 1e-05	–	–
A14C U69C C71U	4.76e-05 ± 8.5e-06	0.000131 ± 1.4e-05	–
C11U A12C U31G G32U U57G	< 1e-05	–	–
G13U C16U A33C C68U	< 1e-05	–	–
C8G A14C G29C C34A C67U	< 1e-05	–	–
G29U A42G U45C	6.45e-05 ± 2.4e-05	0.000107 ± 3.3e-05	–
U55G U65C C70U	0.00017 ± 3.7e-05	0.000458 ± 0.00012	–
A6U A39C G60A	< 1e-05	–	–
G9U G35C A42U U45A C70A	< 1e-05	–	–
U30A A33G A36C	< 1e-05	–	–
A14C C16U G44U U69G	< 1e-05	–	–
C11U G29U U54A	0.000113 ± 2.1e-05	0.000171 ± 4.4e-05	0.000577 ± 0.00014
G13A C34A C67U C70G	< 1e-05	< 1e-05	–

Variant	self-cleavage kobs at 640 uM GlcN6P (glucosamine-6-phosphate [1]) [s⁻¹]	self-cleavage kobs at 2500 uM GlcN6P (glucosamine-6-phosphate [2]) [s⁻¹]	self-cleavage kobs at 10000 uM GlcN6P (glucosamine-6-phosphate [3]) [s⁻¹]
U47G G63U C68G	6.95e-05 ± 3.1e-05	–	–
A36U G43A	< 1e-05	< 1e-05	< 1e-05
U27G A28U U30G C68A	< 1e-05	< 1e-05	–
U46C U69G	8.03e-05 ± 1.7e-05	0.000153 ± 2.7e-05	–
C10U G35C G62C	< 1e-05	< 1e-05	–
G35U U47A	< 1e-05	< 1e-05	–
A12U G38C A39C	< 1e-05	–	< 1e-05
G29A G38C C70A	6.65e-05 ± 3.1e-05	–	–
C10G C58G G62C	< 1e-05	–	–
A14C A36C G51U C61A G63U C67U	8.43e-05 ± 3.9e-05	5.16e-05 ± 1.9e-05	–
U45G U47A A52G C68G	< 1e-05	–	–
G40U G41C C70A	6.65e-05 ± 1.8e-05	0.000546 ± 0.00013	–
A39C C58G G63U U65A C71G	< 1e-05	< 1e-05	< 1e-05
U31G G37C U45G C70U	< 1e-05	< 1e-05	–
C34U U57A	< 1e-05	< 1e-05	–
C34A G44C C58U	< 1e-05	< 1e-05	–
G9U A12G C61A	3.47e-05 ± 1.5e-05	8.52e-05 ± 1.9e-05	–
C8G C58U G59C C61U C67G	< 1e-05	< 1e-05	–
G7C G9C A36G G51C	< 1e-05	–	–
G9A C10G G44A C70U	< 1e-05	< 1e-05	–
G9U C16G G29U G40U G41A G66U	< 1e-05	< 1e-05	–
U31C G38U A39C G43U G62A U69G	< 1e-05	–	–
G40U U65G	0.000417 ± 0.00014	0.00108 ± 0.00028	0.0019 ± 0.00044
G9U G51U C71U	< 1e-05	–	–
U54G G66C	0.000405 ± 6.3e-05	–	0.00079 ± 0.00012

Variant	self-cleavage kobs at 640 uM GlcN6P (glucosamine-6-phosphate [1]) [s⁻¹]	self-cleavage kobs at 2500 uM GlcN6P (glucosamine-6-phosphate [2]) [s⁻¹]	self-cleavage kobs at 10000 uM GlcN6P (glucosamine-6-phosphate [3]) [s⁻¹]
A12U U46C A52G A53G	0.000183 ± 4.4e-05	0.00036 ± 8.9e-05	–
U45G U46C C61A G66U	< 1e-05	< 1e-05	–
A48U G59A C67U	< 1e-05	< 1e-05	–
G13U A15U G32U G62C C68A	7.42e-05 ± 3.5e-05	–	–
U56G U57A	6.17e-05 ± 1e-05	0.000102 ± 1.2e-05	0.000326 ± 4.4e-05
G43U U54G C58A C67U	< 1e-05	–	–
G59U G62A	< 1e-05	–	< 1e-05
G29U U45G U65C	< 1e-05	< 1e-05	–
A33C G35C U49G G59C	< 1e-05	< 1e-05	–
C10A U54G U65C	< 1e-05	–	–
C8A U30C G51U	< 1e-05	–	–
C50G A52U C70U	0.000121 ± 5e-05	–	–
A12C G35A C70U	< 1e-05	< 1e-05	–
C61G C70G C71G	0.000223 ± 8.8e-05	8.65e-05 ± 2.4e-05	–
A6G G63C C67A	< 1e-05	–	–
U30A G51U A53C G59A G60C C70G	< 1e-05	–	–
A42U G44C A52C U57G U65A U69C	< 1e-05	< 1e-05	–
G44U G60C G62U	< 1e-05	< 1e-05	< 1e-05
U30G U31A U65A	0.000791 ± 0.00013	0.000896 ± 0.00022	–
G13A A14C U30G	4.76e-05 ± 1.8e-05	–	–
A33G U57A	< 1e-05	< 1e-05	–
C8A G13U G43A G44U G63U	< 1e-05	–	–
C8U U49A U69G	0.000871 ± 0.00023	0.000796 ± 0.00037	–
G9U G32A G43C	< 1e-05	–	–
G37A U54G U69A	0.000103 ± 2.5e-05	5.96e-05 ± 2.2e-05	–
